Reference: patent publication US9828595B2, “Thermostable asparaginase variants and polynucleotides encoding same” (Novozymes A/S, priority 2012, dated 2017)
Positions count from the first letter of the chain named. Numbers in names are those of the source.

Columns and labels:
[1] = target: T1, Aspergillus oryzae asparaginase, wild type (Wt enzyme), SEQ ID NO: 2 (Aspergillus oryzae, UniProt Q2URI4); assay: Effect of xylitol on asparaginase activity, Wt enzyme; assay type: biochemical; settings: buffer 70.8 g + 29.2 g xylitol, pH 6, 37° C.; activity in buffer without xylitol = 100%
T1 construct: Nessler assay with xylitol or NaCl
Experimental: (§1) Example 13: Asparaginase Activity Assay—Used in Example 14
(§2) Asparaginase hydrolyses asparagine to aspartic acid and ammonium. Produced ammonium is determined using Nessler's reagent.
(§3) Activity is determined relative to a standard of known activity in ASNU or to a relevant control sample. Activity as determined according to this assay is referred to as nASNU.
(§4) Mix buffer and asparagine and let it equilibrate at 37° C. for 10-15 min. Add enzyme standard or sample and incubate for 10 min at 37° C. Add TCA to stop the reaction.
(§5) Ammonium Determination (Nessler Assay)
(§6) Milli-Q water, sample and Nessler's reagent is added to the microtiter plate. Shake for 10 sec and then leave to incubate for 10 min before shaking again and reading at 440 nm.
(§7) Example 14: Testing the Effect of NaCl and Xylitol on Enzyme Activity
(§8) To test the effect of NaCl or xylitol on asparaginase activity, the compounds were added directly to the buffer and asparaginase activity measured using the standard assay described in Example 13. NaCl was tested in two concentrations and xylitol in one.
(§9) Buffer: 20 mM citric acid buffer, pH 6, 0.001% triton X100:
(§10) Xylitol: 70.8 g buffer+29.2 g xylitol
(§11) The measured activity in the presence of either NaCl or xylitol was compared to the activity in buffer without NaCl and xylitol (set as 100%).

[2] = target: T2, Aspergillus niger asparaginase, wild type, SEQ ID NO: 10 (Aspergillus niger, UniProt A2QBE5); assay: Effect of xylitol on asparaginase activity, A. niger wt; assay type: biochemical; settings: buffer 70.8 g + 29.2 g xylitol, pH 6, 37° C.; activity in buffer without xylitol = 100%
T2 construct: enzyme preparation tested in Nessler assay
T2 sequence (A2QBE5 18-378): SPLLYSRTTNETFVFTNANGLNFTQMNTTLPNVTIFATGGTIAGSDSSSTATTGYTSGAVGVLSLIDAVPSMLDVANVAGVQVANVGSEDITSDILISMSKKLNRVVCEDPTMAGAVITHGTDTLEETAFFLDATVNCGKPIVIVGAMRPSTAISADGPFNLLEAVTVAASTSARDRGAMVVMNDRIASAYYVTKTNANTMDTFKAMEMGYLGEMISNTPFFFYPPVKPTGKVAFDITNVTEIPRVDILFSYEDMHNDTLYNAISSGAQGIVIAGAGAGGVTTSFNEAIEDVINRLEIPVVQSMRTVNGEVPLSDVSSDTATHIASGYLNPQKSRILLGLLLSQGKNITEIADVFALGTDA
Experimental: as §1, §2, §3, §4, §5, §6, §7, §8, §9, §10, §11

[3] = substrate: NC(=O)C[C@H](N)C(=O)O; assay: Km and kcat determination, WT; assay type: biochemical, Aspergillus oryzae; settings: other: L-asparagine 0.22-26.6 mM, pH 5.0, 50° C., 10 min
Experimental: (§12) Example 15: Km and Kcat Determination
(§13) Purified enzyme was diluted with 20 mM sodium acetate buffer pH 5.5 to a solution of a specified activity around 2 rASNU/ml. Ten microliters of enzyme solution was added to 100 microL of preincubated substrate solution containing L-asparagine in different concentration (0.22-26.6 mM) constructed by dissolving L-asparagine monohydrate in 100 mM sodium acetate buffer pH 5.0 including 0.02% TritonX-100. After 10 min incubation at 50° C., the amount of generated ammonia in the reaction mixture was measured by using Ammonia Test Kit (Wako Pure Chemicals, Japan) following the package insert protocol. The Km and Vmax were determined from Michaelis-Menten equation, and kcat was calculated using Vmax.

[4] = substrate: NC(=O)C[C@H](N)C(=O)O; assay: Km and kcat determination, JN161; assay type: biochemical, Aspergillus oryzae; settings: other: L-asparagine 0.22-26.6 mM, pH 5.0, 50° C., 10 min
Experimental: as §12, §13

[5] = substrate: NC(=O)C[C@H](N)C(=O)O; assay: Km and kcat determination, JN167; assay type: biochemical, Aspergillus oryzae; settings: other: L-asparagine 0.22-26.6 mM, pH 5.0, 50° C., 10 min
Experimental: as §12, §13

[6] = substrate: NC(=O)C[C@H](N)C(=O)O; assay: Km and kcat determination, JN178; assay type: biochemical, Aspergillus oryzae; settings: other: L-asparagine 0.22-26.6 mM, pH 5.0, 50° C., 10 min
Experimental: as §12, §13

[7] = substrate: NC(=O)C[C@H](N)C(=O)O; assay: Km and kcat determination, JN182; assay type: biochemical, Aspergillus oryzae; settings: other: L-asparagine 0.22-26.6 mM, pH 5.0, 50° C., 10 min
Experimental: as §12, §13

[8] = substrate: NC(=O)C[C@H](N)C(=O)O; assay: Km and kcat determination, JN180; assay type: biochemical, Aspergillus oryzae; settings: other: L-asparagine 0.22-26.6 mM, pH 5.0, 50° C., 10 min
Experimental: as §12, §13

[9] = substrate: NC(=O)C[C@H](N)C(=O)O; assay: Km and kcat determination, JN183; assay type: biochemical, Aspergillus oryzae; settings: other: L-asparagine 0.22-26.6 mM, pH 5.0, 50° C., 10 min
Experimental: as §12, §13

[10] = substrate: NC(=O)C[C@H](N)C(=O)O; assay: Km and kcat determination, JN181; assay type: biochemical, Aspergillus oryzae; settings: other: L-asparagine 0.22-26.6 mM, pH 5.0, 50° C., 10 min
Experimental: as §12, §13

OC[C@@H](O)[C@H](O)[C@@H](O)CO [xylitol]
% activity xylitol [1]: 158%
% activity xylitol [2]: 176%

B1: Aspergillus oryzae asparaginase, wild type (WT), SEQ ID NO: 2 (Aspergillus oryzae RIB40) (protein)
chain: ATDSNVTYVFTNPNGLNFTQMNTTLPNVTIFATGGTIAGSSADNTATTGYKAGAVGIQTLIDAVPEMLNVANVAGVQVTNVGSPDITSDILLRLSKQINEVVCNDPTMAGAVVTHGTDTLEESAFFLDATVNCRKPVVIVGAMRPSTAISADGPLNLLQSVTVAASPKARDRGALIVMNDRIVSAFYASKTNANTVDTFKAIEMGNLGEVVSNKPYFFYPPVKPTGKTEVDIRNITSIPRVDILYSYEDMHNDTLYSAIDNGAKGIVIAGSGSGSVSTPFSAAMEDITTKHNIPIVASTRTGNGEVPSSAESSQIASGYLNPAKSRVLLGLLLAQGKSIEEMRAVFERIGVA
notes: purified
Km [3]: 950 µM
kcat [3]: 121 s⁻¹

B2: Aspergillus oryzae asparaginase variant JN161: JN070 (N70K S307A A323R T327V A349Q S351A V353I, SEQ ID NO: 4) with K122A P241E K290V S299A S338W (Aspergillus … (protein)
chain: ATDSNVTYVFTNPNGLNFTQMNTTLPNVTIFATGGTIAGSSADKTATTGYKAGAVGIQTLIDAVPEMLNVANVAGVQVTNVGSPDITSDILLRLSAQINEVVCNDPTMAGAVVTHGTDTLEESAFFLDATVNCRKPVVIVGAMRPSTAISADGPLNLLQSVTVAASPKARDRGALIVMNDRIVSAFYASKTNANTVDTFKAIEMGNLGEVVSNKEYFFYPPVKPTGKTEVDIRNITSIPRVDILYSYEDMHNDTLYSAIDNGAVGIVIAGSGAGSVSTPFAAAMEDITTKHNIPIVRSTRVGNGEVPSSAEWSQIASGYLNPQKARILLGLLLAQGKSIEEMRAVFERIGVA
notes: purified; expressed in Aspergillus
Km [4]: 690 µM
kcat [4]: 172 s⁻¹

B3: Aspergillus oryzae asparaginase variant JN167: JN070 (N70K S307A A323R T327V A349Q S351A V353I, SEQ ID NO: 4) with K122A P241E S299A S334P (Aspergillus oryzae … (protein)
chain: B2 chain with V264K, S308P, W312S
notes: as for B2
Km [5]: 670 µM
kcat [5]: 127 s⁻¹

B4: Aspergillus oryzae asparaginase variant JN178: JN070 (N70K S307A A323R T327V A349Q S351A V353I, SEQ ID NO: 4) with K122A K240R P241E S299A S334P (Aspergillus … (protein)
chain: B2 chain with K214R, V264K, S308P, W312S
notes: as for B2
Km [6]: 880 µM
kcat [6]: 127 s⁻¹

B5: Aspergillus oryzae asparaginase variant JN182: JN070 (N70K S307A A323R T327V A349Q S351A V353I, SEQ ID NO: 4) with K122A P241E S299A S334P E337S (Aspergillus … (protein)
chain: B2 chain with V264K, S308P, E311S, W312S
notes: as for B2
Km [7]: 910 µM
kcat [7]: 186 s⁻¹

B6: Aspergillus oryzae asparaginase variant JN180: JN070 (N70K S307A A323R T327V A349Q S351A V353I, SEQ ID NO: 4) with K122A K240R P241E S299A S334P E337S … (protein)
chain: B2 chain with K214R, V264K, S308P, E311S, W312S
notes: as for B2
Km [8]: 830 µM
kcat [8]: 185 s⁻¹

B7: Aspergillus oryzae asparaginase variant JN183: JN070 (N70K S307A A323R T327V A349Q S351A V353I, SEQ ID NO: 4) with K122A P241E S299A S334P S338W (Aspergillus … (protein)
chain: B2 chain with V264K, S308P
notes: as for B2
Km [9]: 910 µM
kcat [9]: 189 s⁻¹

B8: Aspergillus oryzae asparaginase variant JN181: JN070 (N70K S307A A323R T327V A349Q S351A V353I, SEQ ID NO: 4) with K122A K240R P241E K253R S299A S334P E337S … (protein)
chain: B2 chain with K214R, K227R, V264K, S308P, E311S, W312S
notes: as for B2
Km [10]: 580 µM
kcat [10]: 138 s⁻¹
